These are literature values, as cited in article PMC2957019 (Journal of labelled compounds & radiopharmaceuticals, 2009).

Where no end group is shown, it is not given here. Where only a bound is given, the exact number is not on record here.

The conditions of this data set: incubation in serum.

With “^125I-FROP-1: 12-amino acid synthetic peptide radiolabeled with iodine (EDYELMDLLAYL), selected by phage display for targeting thyroid carcinoma cells (also: 125I radiolabel)”, the “time to degradation in serum” value was at most 30 min.
